± gives the standard error. This sample holds only a part of the variants without activity.
B1: glmS ribozyme (parent)
chain: AUAAAAGCGCCAGAACUACAGAAAUGUAGUUGACGAGGAGGAGGUUUAUCGAAUUUUCGGCGGAUGCCUCCAAA

Key:
Conditions in all cases: with glucosamine-6-phosphate
glucosamine-6-phosphate [1] = variants of: B1; assay: self-cleavage kobs at 40 uM GlcN6P; higher = faster cleavage; RNA array
Summary of the method: (§1)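 Barcoded ribozyme variants on sequenced MiSeq chips were transcribed in situ by E. coli RNA polymerase and followed at 37 °C through a hybridised Cy3 probe. Glucosamine-6-phosphate at 40 μM to 10 mM in HEPES/KCl/Mg(OAc)2 buffer was flowed in, and tiles were imaged over ~14 h. Signals were normalised to baseline and to non-cleaving reference variants, and per-tile medians were fit to one- or two-exponential decays to give kobs. Weighted Michaelis–Menten fits across concentrations gave kcat and KM.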

glucosamine-6-phosphate [2] = variants of: B1; assay: self-cleavage kobs at 640 uM GlcN6P; higher = faster cleavage; RNA array
Summary of the method: as §1

glucosamine-6-phosphate [3] = variants of: B1; assay: self-cleavage kobs at 2500 uM GlcN6P; higher = faster cleavage; RNA array
Summary of the method: as §1

glucosamine-6-phosphate [4] = variants of: B1; assay: self-cleavage kobs at 160 uM GlcN6P; higher = faster cleavage; RNA array
Summary of the method: as §1

glucosamine-6-phosphate [5] = variants of: B1; assay: self-cleavage kobs at 10000 uM GlcN6P; higher = faster cleavage; RNA array
Summary of the method: as §1

Variant | self-cleavage kobs at 40 uM GlcN6P (glucosamine-6-phosphate [1]) | self-cleavage kobs at 640 uM GlcN6P (glucosamine-6-phosphate [2]) | self-cleavage kobs at 2500 uM GlcN6P (glucosamine-6-phosphate [3]) | self-cleavage kobs at 160 uM GlcN6P (glucosamine-6-phosphate [4]) | self-cleavage kobs at 10000 uM GlcN6P (glucosamine-6-phosphate [5])
G29A A36U | < 1e-05 s⁻¹ | < 1e-05 s⁻¹ | < 1e-05 s⁻¹ |  | 
U69A | 0.000341 ± 7.7e-05 s⁻¹ | 0.000282 ± 3.1e-05 s⁻¹ | 0.00219 ± 0.0004 s⁻¹ | 0.000534 ± 0.00018 s⁻¹ | 0.000299 ± 4.6e-05 s⁻¹
C16U G32U A48C G59C | < 1e-05 s⁻¹ |  |  |  | < 1e-05 s⁻¹
A6G U31C G41U A52U | < 1e-05 s⁻¹ |  |  |  | < 1e-05 s⁻¹
U45G A48U C71G | < 1e-05 s⁻¹ |  |  |  | 
C16U C50G G59A C68A | 4.62e-05 ± 2.3e-05 s⁻¹ |  |  |  | 4.07e-05 ± 1.3e-05 s⁻¹
G37C G38A | < 1e-05 s⁻¹ |  |  | < 1e-05 s⁻¹ | < 1e-05 s⁻¹
G37C G41U G63C | < 1e-05 s⁻¹ |  |  |  | 
C10U G44A G51U | < 1e-05 s⁻¹ |  |  |  | 
G7A G13U | < 1e-05 s⁻¹ | < 1e-05 s⁻¹ |  | < 1e-05 s⁻¹ | 
G38C G44U C58U A64U | < 1e-05 s⁻¹ |  |  |  | < 1e-05 s⁻¹
C10U G13A A39U G60U | < 1e-05 s⁻¹ |  |  |  | 
C10A A12U | < 1e-05 s⁻¹ |  |  |  | 
C10U G66C | < 1e-05 s⁻¹ | < 1e-05 s⁻¹ |  |  | < 1e-05 s⁻¹
C16U C67U | 0.000314 ± 3.3e-05 s⁻¹ | 0.00186 ± 0.00024 s⁻¹ | 0.00294 ± 0.00071 s⁻¹ | 0.000412 ± 0.00014 s⁻¹ | 0.0126 ± 0.0021 s⁻¹
G9C U65A | < 1e-05 s⁻¹ |  | < 1e-05 s⁻¹ |  | 
A6G A15C A53G | < 1e-05 s⁻¹ |  | 6.25e-05 ± 2e-05 s⁻¹ |  | 
A53C C61U | < 1e-05 s⁻¹ | < 1e-05 s⁻¹ |  | < 1e-05 s⁻¹ | 
U30G U56A G66A | 5.14e-05 ± 1.7e-05 s⁻¹ |  |  |  | 0.00252 ± 0.00061 s⁻¹
A42U G60C C67A | < 1e-05 s⁻¹ |  |  |  | < 1e-05 s⁻¹
A6U A36G | < 1e-05 s⁻¹ | < 1e-05 s⁻¹ |  | < 1e-05 s⁻¹ | < 1e-05 s⁻¹
G29C G38U A48C | < 1e-05 s⁻¹ | < 1e-05 s⁻¹ |  |  | < 1e-05 s⁻¹
C8G A64C | < 1e-05 s⁻¹ |  | < 1e-05 s⁻¹ | < 1e-05 s⁻¹ | < 1e-05 s⁻¹
G9A U65C | < 1e-05 s⁻¹ | < 1e-05 s⁻¹ | < 1e-05 s⁻¹ | < 1e-05 s⁻¹ | < 1e-05 s⁻¹

Variant | self-cleavage kobs at 40 uM GlcN6P (glucosamine-6-phosphate [1]) | self-cleavage kobs at 640 uM GlcN6P (glucosamine-6-phosphate [2]) | self-cleavage kobs at 2500 uM GlcN6P (glucosamine-6-phosphate [3]) | self-cleavage kobs at 160 uM GlcN6P (glucosamine-6-phosphate [4]) | self-cleavage kobs at 10000 uM GlcN6P (glucosamine-6-phosphate [5])
A6C A12U U30A A48C | < 1e-05 s⁻¹ |  |  |  | < 1e-05 s⁻¹
U30G A33C A42C | < 1e-05 s⁻¹ |  |  |  | < 1e-05 s⁻¹
A42U U65C | < 1e-05 s⁻¹ | < 1e-05 s⁻¹ | < 1e-05 s⁻¹ | < 1e-05 s⁻¹ | < 1e-05 s⁻¹
A52C A64G | < 1e-05 s⁻¹ | < 1e-05 s⁻¹ |  | < 1e-05 s⁻¹ | 
G35C G66A | < 1e-05 s⁻¹ |  | < 1e-05 s⁻¹ |  | < 1e-05 s⁻¹
A39C C50A | < 1e-05 s⁻¹ | < 1e-05 s⁻¹ |  | < 1e-05 s⁻¹ | < 1e-05 s⁻¹
G40U G44A | < 1e-05 s⁻¹ |  |  | < 1e-05 s⁻¹ | < 1e-05 s⁻¹
C16G G62U | < 1e-05 s⁻¹ | < 1e-05 s⁻¹ | < 1e-05 s⁻¹ | < 1e-05 s⁻¹ | < 1e-05 s⁻¹
A15C U69C | 0.000108 ± 2.5e-05 s⁻¹ | 0.000226 ± 8.5e-05 s⁻¹ | 0.000165 ± 4.4e-05 s⁻¹ |  | 0.00087 ± 0.00022 s⁻¹
G40U G51A | < 1e-05 s⁻¹ | < 1e-05 s⁻¹ | < 1e-05 s⁻¹ |  | < 1e-05 s⁻¹
C16U A42U U45C G59A C68U | < 1e-05 s⁻¹ |  |  |  | < 1e-05 s⁻¹
C11G U57G | < 1e-05 s⁻¹ |  | < 1e-05 s⁻¹ | < 1e-05 s⁻¹ | < 1e-05 s⁻¹
C10A U30G | < 1e-05 s⁻¹ |  |  | < 1e-05 s⁻¹ | 
C16A U55A | 7.92e-05 ± 1.5e-05 s⁻¹ |  | 0.000515 ± 0.00022 s⁻¹ |  | 0.00285 ± 0.00043 s⁻¹
G44C A52U | < 1e-05 s⁻¹ |  |  |  | 
G13U A48G U65C U69G | < 1e-05 s⁻¹ |  |  |  | 
A48U G60C C61U | < 1e-05 s⁻¹ | < 1e-05 s⁻¹ |  |  | 
C10U G32C C68A | < 1e-05 s⁻¹ |  |  |  | 
C11A U45G | < 1e-05 s⁻¹ | < 1e-05 s⁻¹ |  | < 1e-05 s⁻¹ | 
G40U C67U C70A | < 1e-05 s⁻¹ |  |  |  | 
C16U U54A | 0.000888 ± 0.00012 s⁻¹ | 0.00323 ± 0.00079 s⁻¹ | 0.00607 ± 0.0014 s⁻¹ | 0.00185 ± 0.0004 s⁻¹ | 0.0405 ± 0.0081 s⁻¹
A33U G60A | < 1e-05 s⁻¹ | < 1e-05 s⁻¹ |  | < 1e-05 s⁻¹ | 
C34A G44A | < 1e-05 s⁻¹ | < 1e-05 s⁻¹ | < 1e-05 s⁻¹ | < 1e-05 s⁻¹ | < 1e-05 s⁻¹
